Reference: paper PMC4596477, “Interaction of Myosin Phosphatase Target Subunit (MYPT1) with Myosin Phosphatase-RhoA Interacting Protein (MRIP): A Role of Glutamic Acids in the Interaction” (PLoS ONE, 2015)

Legend:
MRIP^724-878 [1] = biological target: T1, MRIP^724-878 (Homo sapiens, UniProt Q6WCQ1); assay: SPR, MYPT1 peptides as analytes over immobilized MRIP^724-878; assay type: binding; details: 25°C, pH 7.4, CCLR 167–1 μM, CC 318–10 μM, LR 569–5 μM
T1 construct: MRIP^724-878 (residues 724–878; CC2-CC4); made in house; host or cells: Escherichia coli BL21 (DE3)
T1 sequence (Q6WCQ1 725-879): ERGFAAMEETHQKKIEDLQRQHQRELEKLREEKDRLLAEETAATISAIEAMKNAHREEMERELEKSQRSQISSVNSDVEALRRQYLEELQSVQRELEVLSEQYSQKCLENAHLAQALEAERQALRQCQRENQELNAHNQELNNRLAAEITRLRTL
Description: To corroborate the results from AUC studies, SPR was employed. […] Equilibrium K d values were obtained by nonlinear curve fitting of reference-corrected curves using the steady-state affinity fitting model in BIAevaluation version 4–1.
Analytes CCLR, CC, LR: Interactions between analytes, CCLR (167–1 μM), CC (318–10 μM), and LR (569–5 μM) with immobilized ligand, MRIP^724-878 (1800 RU) after correction for nonspecific binding using G-actin (2230 RU). Shown is a representative out of 9 experiments for CCLR and 8 for LR in each, duplicates or triplicates. Insets show fittings of steady-state affinity. Ligand LR: Interaction of analyte, MRIP^724-878 (85.6–0.7 μM) with immobilized ligand, LR (244.8 RU) after correction for nonspecific binding using a nebulin-derived peptide (600 RU). Shown is a representative out of 6 experiments.
Binding analyses of SPR were conducted on a Biacore 3000 (GE Healthcare) at 25°C. Sensor chips and reagents for immobilization (1-ethyl-3-(3-dimethylaminopropyl) carbodiimide, N-hydroxyl-succinimide, and ethanolamine) were purchased from GE Healthcare. Peptides were immobilized onto a CM5 sensor chip at 232–5841 resonance units (RU) using amine coupling. Binding studies were done using two-fold serial dilutions of the peptides in 50 mM potassium phosphate buffer (pH 7.4) containing 100 mM KCl. […]

[2] = AUC of MYPT1 peptides alone (concentration dependence, self-association); assay type: physicochemical; details: CC alone, 107 μM and 3-, 9-fold dilutions, MRIP^724-878 alone, 50 μM and 3-, pH 7.4, 20°C
From the text: (§1) To determine the minimal MRIP-binding region of MYPT1, AUC was employed to examine interactions between sub-domains of CCLR, CC (residues 924–990) and LR (residues 991–1030) with MRIP^724-878 (Fig 4A). CC is the putative coiled coil domain and LR contains 16 upstream amino acid residues (residues 991–1006) in addition to the leucine repeat (residues 1007–1028). MRIP^724-878 was chosen because of its good fit to a single component, single-species model. […] Global fitting of the mixture to a two-component model produced a good fit and the RMSD of the fit was 0.010 (Fig 4B; Fitting of CC).
Fig 4 LR contains sufficient residues for the MYPT1/MRIP interaction. […] CC; Concentration-normalized time derivative g(s*) plots of CC, MRIP^724-878, and equimolar mixtures of the two peptides: Black filled-in circles, an original CC alone (107 μM); dark gray filled-in circles, a 3-fold dilution of CC alone; light gray filled-in circles, a 9-fold dilution of CC alone; black filled-in triangles, an original MRIP^724-878 alone (50 μM); dark gray filled-in triangles, a 3-fold dilution of MRIP^724-878 alone; light gray filled-in triangles, a 9-fold dilution of MRIP^724-878 alone; a black line, an original equimolar mixture of MRIP^724-878/CC (50 μM each): a dark gray line, a 3-fold dilution of the mixture; a light gray line, a 9-fold dilution of the mixture. […]

MRIP^724-878 [3] = biological target: T1, MRIP^724-878; assay: AUC interaction of MYPT1 peptides (CC, LR and LR mutants) with MRIP^724-878; assay type: binding; details: equimolar mixture (CC: 50 μM each) and dilutions, pH 7.4, 100 mM KCl, 20°C
From the text: as §1
The coiled coil is a common protein-protein interaction domain. The MRIP peptides in this study have putative coiled coil domains and are α-helical. In contrast, the MYPT1 peptide, LR is not α-helical even though it contains the leucine repeat. Thus, we hypothesized that charged residues of MYPT1 might participate in the MYPT1/MRIP interaction with its leucine residues. We generated various LR peptides representing mutations in charged residues (Fig 6A) and examined their bindings to MRIP^724-878 (Fig 6B).
Fig 6 Glutamic acids within LR enhance the MRIP-binding affinity. (A) Amino acid sequences of the wild-type LR (WT-LR) and mutant LR peptides. Charged residues are in bold, the leucine repeat is in Italic, and substitution mutations are underlined. (B) Time derivative s*lg(s*) graphs: Line, MRIP^724-878 alone (50 μM); filled-in circles, original mixture of MRIP^724-878/each mutant LR peptide (50 μM each except for R992D/R993D and E996K whose mixtures consisted of excess amount of the mutant LR peptides); open circles, a three-fold dilution of the original mixture. The molar mass of the complex differs slightly from that of MRIP^724-878 dimer (37.9 kDa vs 37.4 kDa), and thus the shift in the main peak position is not easily discernable in many cases.
The cDNA fragment encoding MRIP peptides were amplified using a full-length MRIP cDNA as a template with the following primer pairs: MRIP^545-878, 5’-[…]/5’[…]; MRIP^724-878, 5’-[…]/5’-[…]; MRIP^724-837, 5’-[…]/5’-[…]. The PCR products were ligated into pCR2.1-TOPO using the TA cloning system and sequenced in both directions. The IMPACT™ (Intein Mediated Purification with an Affinity Chitin-binding Tag) Kit (New England BioLabs) was used to express peptides in bacteria to obtain tag-free peptides. The PCR amplicon encoding MRIP peptides were fused in frame to the chitin binding domain of pTYB12 vector utilizing the NdeI/EcoRI restriction sites. The expression vectors for the MYPT1 peptides, CCLR (residues 924–1030), CC (residues 924–990), and LR (residues 991–1030) were constructed as described: In the reference literature, CCLR and LR were named CCLZ and LZ, respectively. Recombinant peptides were produced in Escherichia coli strain BL21 (DE3) and purified using chitin beads according to the manufacturer's protocol. For further purification, the eluent from chitin beads was loaded on a Vydac C8 reversed phase column and subjected to HPLC using an acetonitrile gradient. Purity and identity of the peptides were confirmed by polyacrylamide gel electrophoresis (PAGE) and mass spectrometry. For the mutagenesis study of LR, the wild-type and mutant LR peptides were synthesized, purified by reverse-phase HPLC, and lyophilized to dryness at the peptide core in Boston Biomedical Research Institute.
Sedimentation velocity experiments were done on a Beckman Instruments Optima XL-I analytical ultracentrifuge equipped with Rayleigh optics. The cells were equipped with sapphire windows and 12 mm charcoal-filled Epon centerpieces. Apparent sedimentation coefficient distribution patterns were computed by the time derivative method. Peptides were dialyzed against 50 mM potassium phosphate buffer (pH 7.4) containing 100 mM KCl, and 1 mM DTT at 4°C overnight and then subjected to AUC at 50,000 rpm and 20°C. […]

MRIP = test system: MRIP; design: method as in PMID 16243315; details: double point mutations in CC5; ref [12]; cited from earlier work

B1: CC: sub-domain of CCLR, residues 924–990; the putative coiled coil domain (protein, UniProt Q6WCQ1 924-990, looked up, fragment)
chain: KDELQTALRDKKYASDKYKDIYTELSIAKAKADCDISRLKEQLKAATEALGEKSPDSATVSGYDIMK
complex formation with immobilized MRIP^724-878 (MRIP^724-878 [1]): did not
concentration dependence of g(s*) curves [2]: superimposable, indicating concentration-independence
binding to MRIP^724-878 (g(s*) curves) (MRIP^724-878 [3]): no binding

B2: L905P/I912P: MRIP mutation employed by Mulder et al; double point mutation in CC5 (protein, UniProt Q6WCQ1 2-1025, looked up, variant L905P I912P)
Myosin phosphatase …: SAAKENPCRKFQANIFNKSKCQNCFKPRESHLLNDEDLTQAKPIYGGWLLLAPDGTDFDNPVHRSRKWQRRFFILYEHGLLRYALDEMPTTLPQGTINMNQCTDVVDGEGRTGQKFSLCILTPEKEHFIRAETKEIVSGWLEMLMVYPRTNKQNQKKKRKVEPPTPQEPGPAKVAVTSSSSSSSSSSSIPSAEKVPTTKSTLWQEEMRTKDQPDGSSLSPAQSPSQSQPPAASSLREPGLESKEEESAMSSDRMDCGRKVRVESGYFSLEKTKQDLKAEEQQLPPPLSPPSPSTPNHRRSQVIEKFEALDIEKAEHMETNAVGPSPSSDTRQGRSEKRAFPRKRDFTNEAPPAPLPDASASPLSPHRRAKSLDRRSTEPSVTPDLLNFKKGWLTKQYEDGQWKKHWFVLADQSLRYYRDSVAEEAADLDGEIDLSACYDVTEYPVQRNYGFQIHTKEGEFTLSAMTSGIRRNWIQTIMKHVHPTTAPDVTSSLPEEKNKSSCSFETCPRPTEKQEAELGEPDPEQKRSRARERRREGRSKTFDWAEFRPIQQALAQERVGGVGPADTHEPLRPEAEPGELERERARRREERRKRFGMLDATDGPGTEDAALRMEVDRSPGLPMSDLKTHNVHVEIEQRWHQVETTPLREEKQVPIAPVHLSSEDGGDRLSTHELTSLLEKELEQSQKEASDLLEQNRLLQDQLRVALGREQSAREGYVLQATCERGFAAMEETHQKKIEDLQRQHQRELEKLREEKDRLLAEETAATISAIEAMKNAHREEMERELEKSQRSQISSVNSDVEALRRQYLEELQSVQRELEVLSEQYSQKCLENAHLAQALEAERQALRQCQRENQELNAHNQELNNRLAAEITRLRTLLTGDGGGEATGSPLAQGKDAYELEVLPRVKESEPQYLKQEISSLKDELQTALRDKKYASDKYKDIYTELSIAKAKADCDISRLKEQLKAATEALGEKSPDSATVSGYDIMKSKSNPDFLKKDRSCVTRQLRNIRSKSVIEQVSWDT
oligomerization (MRIP): little oligomerization

B3: I919P/L926P: MRIP mutation employed by Mulder et al; double point mutation in CC5 (protein, UniProt Q6WCQ1 2-1025, looked up, variant I919P L926P)
Myosin phosphatase …: SAAKENPCRKFQANIFNKSKCQNCFKPRESHLLNDEDLTQAKPIYGGWLLLAPDGTDFDNPVHRSRKWQRRFFILYEHGLLRYALDEMPTTLPQGTINMNQCTDVVDGEGRTGQKFSLCILTPEKEHFIRAETKEIVSGWLEMLMVYPRTNKQNQKKKRKVEPPTPQEPGPAKVAVTSSSSSSSSSSSIPSAEKVPTTKSTLWQEEMRTKDQPDGSSLSPAQSPSQSQPPAASSLREPGLESKEEESAMSSDRMDCGRKVRVESGYFSLEKTKQDLKAEEQQLPPPLSPPSPSTPNHRRSQVIEKFEALDIEKAEHMETNAVGPSPSSDTRQGRSEKRAFPRKRDFTNEAPPAPLPDASASPLSPHRRAKSLDRRSTEPSVTPDLLNFKKGWLTKQYEDGQWKKHWFVLADQSLRYYRDSVAEEAADLDGEIDLSACYDVTEYPVQRNYGFQIHTKEGEFTLSAMTSGIRRNWIQTIMKHVHPTTAPDVTSSLPEEKNKSSCSFETCPRPTEKQEAELGEPDPEQKRSRARERRREGRSKTFDWAEFRPIQQALAQERVGGVGPADTHEPLRPEAEPGELERERARRREERRKRFGMLDATDGPGTEDAALRMEVDRSPGLPMSDLKTHNVHVEIEQRWHQVETTPLREEKQVPIAPVHLSSEDGGDRLSTHELTSLLEKELEQSQKEASDLLEQNRLLQDQLRVALGREQSAREGYVLQATCERGFAAMEETHQKKIEDLQRQHQRELEKLREEKDRLLAEETAATISAIEAMKNAHREEMERELEKSQRSQISSVNSDVEALRRQYLEELQSVQRELEVLSEQYSQKCLENAHLAQALEAERQALRQCQRENQELNAHNQELNNRLAAEITRLRTLLTGDGGGEATGSPLAQGKDAYELEVLLRVKESEIQYLKQEPSSLKDEPQTALRDKKYASDKYKDIYTELSIAKAKADCDISRLKEQLKAATEALGEKSPDSATVSGYDIMKSKSNPDFLKKDRSCVTRQLRNIRSKSVIEQVSWDT
oligomerization (MRIP): little oligomerization
